Test system: Escherichia coli TOP10
Test: shrunken log2 fold change of peptide-encoding DNA abundance (4.5 h post-induction vs induction); higher = less antimicrobial activity (less host growth inhibition)
Conditions: time post-induction: 4.5 h; library: site-saturation at positions 5, 18, 19, 20
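Also: peptides expressed intracellularly from a pBAD plasmid library in pooled LB shake-flask culture, induced with 0.3% L-arabinose, DNA abundance read by NGS, three biological replicates, DESeq2 with apeglm shrinkage.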

Sequence: RRIRCRPPRLPRPRPRPAQRPRP
- shrunken log2 fold change: 0.613

Sequence: RRIRQRPPRLPRPRPRPHTEPRP
- shrunken log2 fold change: 0.0633

Sequence: RRIRGRPPRLPRPRPRPWPMPRP
- shrunken log2 fold change: 0.31

Sequence: RRIRDRPPRLPRPRPRPMINPRP
- shrunken log2 fold change: 0.0491

Sequence: RRIRMRPPRLPRPRPRPFDPPRP
- shrunken log2 fold change: 0.0446

Sequence: RRIRHRPPRLPRPRPRPECPPRP
- shrunken log2 fold change: -0.0835

Sequence: RRIRLRPPRLPRPRPRPINSPRP
- shrunken log2 fold change: 0.0605

Sequence: RRIRCRPPRLPRPRPRPMMAPRP
- shrunken log2 fold change: 0.184

Sequence: RRIRSRPPRLPRPRPRPQEHPRP
- shrunken log2 fold change: -0.112

Sequence: RRIRVRPPRLPRPRPRPWGPPRP
- shrunken log2 fold change: -0.164

Sequence: RRIRLRPPRLPRPRPRPWTPPRP
- shrunken log2 fold change: -0.191

Sequence: RRIRRRPPRLPRPRPRPLKLPRP
- shrunken log2 fold change: -0.0808

Sequence: RRIRFRPPRLPRPRPRPHWNPRP
- shrunken log2 fold change: -0.653

Sequence: RRIRTRPPRLPRPRPRPPDMPRP
- shrunken log2 fold change: -0.142

Sequence: RRIRHRPPRLPRPRPRPWGCPRP
- shrunken log2 fold change: -0.106

Sequence: RRIRTRPPRLPRPRPRPLELPRP
- shrunken log2 fold change: -0.176

Sequence: RRIRMRPPRLPRPRPRPLYSPRP
- shrunken log2 fold change: -1.32

Sequence: RRIRPRPPRLPRPRPRPSFNPRP
- shrunken log2 fold change: -0.629

Sequence: RRIRRRPPRLPRPRPRPIIEPRP
- shrunken log2 fold change: 0.0476

Sequence: RRIRFRPPRLPRPRPRPIWWPRP
- shrunken log2 fold change: 0.617

Sequence: RRIRLRPPRLPRPRPRPKLLPRP
- shrunken log2 fold change: -0.331

Sequence: RRIRCRPPRLPRPRPRPPPCPRP
- shrunken log2 fold change: 1.07

Sequence: RRIRMRPPRLPRPRPRPFGTPRP
- shrunken log2 fold change: -0.112

Sequence: RRIRTRPPRLPRPRPRPTRNPRP
- shrunken log2 fold change: -0.0423

Sequence: RRIRMRPPRLPRPRPRPHHHPRP
- shrunken log2 fold change: -0.412

Sequence: RRIRARPPRLPRPRPRPWRFPRP
- shrunken log2 fold change: 0.323

Sequence: RRIRYRPPRLPRPRPRPFREPRP
- shrunken log2 fold change: -0.35

Sequence: RRIRDRPPRLPRPRPRPHFVPRP
- shrunken log2 fold change: -0.193

Sequence: RRIRRRPPRLPRPRPRPGGAPRP
- shrunken log2 fold change: 0.492

Sequence: RRIRKRPPRLPRPRPRPINEPRP
- shrunken log2 fold change: -0.215

Sequence: RRIRSRPPRLPRPRPRPVGGPRP
- shrunken log2 fold change: 0.433

Sequence: RRIRQRPPRLPRPRPRPWVCPRP
- shrunken log2 fold change: -0.208

Sequence: RRIRTRPPRLPRPRPRPDLAPRP
- shrunken log2 fold change: 0.132

Sequence: RRIRGRPPRLPRPRPRPHADPRP
- shrunken log2 fold change: 1.68

Sequence: RRIRPRPPRLPRPRPRPVICPRP
- shrunken log2 fold change: 0.0853

Sequence: RRIRWRPPRLPRPRPRPFNLPRP
- shrunken log2 fold change: 0.0233

Sequence: RRIRDRPPRLPRPRPRPHNLPRP
- shrunken log2 fold change: 0.156

Sequence: RRIRFRPPRLPRPRPRPMASPRP
- shrunken log2 fold change: 0.037

Sequence: RRIRIRPPRLPRPRPRPHAQPRP
- shrunken log2 fold change: 0.142

Sequence: RRIRGRPPRLPRPRPRPNAPPRP
- shrunken log2 fold change: 0.938

Sequence: RRIRARPPRLPRPRPRPNTTPRP
- shrunken log2 fold change: -0.164

Sequence: RRIRQRPPRLPRPRPRPYMRPRP
- shrunken log2 fold change: -0.0086

Sequence: RRIRMRPPRLPRPRPRPQKPPRP
- shrunken log2 fold change: -0.165

Sequence: RRIRRRPPRLPRPRPRPPTWPRP
- shrunken log2 fold change: 0.336

Sequence: RRIRNRPPRLPRPRPRPSDWPRP
- shrunken log2 fold change: 0.0113

Sequence: RRIRQRPPRLPRPRPRPNCLPRP
- shrunken log2 fold change: -0.0533

Sequence: RRIRIRPPRLPRPRPRPGDSPRP
- shrunken log2 fold change: 0.0577

Sequence: RRIRNRPPRLPRPRPRPMQNPRP
- shrunken log2 fold change: -0.11

Sequence: RRIRPRPPRLPRPRPRPCKRPRP
- shrunken log2 fold change: -0.0941

Sequence: RRIRMRPPRLPRPRPRPDDHPRP
- shrunken log2 fold change: 0.00288

Sequence: RRIRTRPPRLPRPRPRPSHIPRP
- shrunken log2 fold change: -0.274

Sequence: RRIRYRPPRLPRPRPRPMSCPRP
- shrunken log2 fold change: -0.115

Sequence: RRIRLRPPRLPRPRPRPDPCPRP
- shrunken log2 fold change: -0.0403

Sequence: RRIRLRPPRLPRPRPRPRNEPRP
- shrunken log2 fold change: -0.0675

Sequence: RRIRARPPRLPRPRPRPPRLPRP
- shrunken log2 fold change: 0.829

Sequence: RRIRPRPPRLPRPRPRPMCTPRP
- shrunken log2 fold change: 0.108

Sequence: RRIRSRPPRLPRPRPRPTEPPRP
- shrunken log2 fold change: 0.161

Sequence: RRIRFRPPRLPRPRPRPVKAPRP
- shrunken log2 fold change: 0.0979

Sequence: RRIRFRPPRLPRPRPRPTYTPRP
- shrunken log2 fold change: -0.719

Sequence: RRIRMRPPRLPRPRPRPGDRPRP
- shrunken log2 fold change: 0.786

Sequence: RRIRDRPPRLPRPRPRPYPTPRP
- shrunken log2 fold change: -0.635

Sequence: RRIRYRPPRLPRPRPRPWNWPRP
- shrunken log2 fold change: -0.252

Sequence: RRIRDRPPRLPRPRPRPEDYPRP
- shrunken log2 fold change: 0.0219

Sequence: RRIRWRPPRLPRPRPRPCKNPRP
- shrunken log2 fold change: -0.0451

Sequence: RRIRPRPPRLPRPRPRPERNPRP
- shrunken log2 fold change: -0.307

Sequence: RRIRVRPPRLPRPRPRPHSHPRP
- shrunken log2 fold change: -0.348

Sequence: RRIRARPPRLPRPRPRPTHYPRP
- shrunken log2 fold change: 0.702

Sequence: RRIRIRPPRLPRPRPRPHASPRP
- shrunken log2 fold change: -0.012

Sequence: RRIRARPPRLPRPRPRPNCMPRP
- shrunken log2 fold change: -0.421

Sequence: RRIRGRPPRLPRPRPRPGCMPRP
- shrunken log2 fold change: 0.898

Sequence: RRIRQRPPRLPRPRPRPREAPRP
- shrunken log2 fold change: 0.384

Sequence: RRIRERPPRLPRPRPRPEYGPRP
- shrunken log2 fold change: -0.315

Sequence: RRIRCRPPRLPRPRPRPVPIPRP
- shrunken log2 fold change: 0.0325

Sequence: RRIRCRPPRLPRPRPRPMEFPRP
- shrunken log2 fold change: -0.0158

Sequence: RRIRVRPPRLPRPRPRPGPRPRP
- shrunken log2 fold change: 0.791

Sequence: RRIRERPPRLPRPRPRPHWPPRP
- shrunken log2 fold change: 0.132

Sequence: RRIRCRPPRLPRPRPRPIAQPRP
- shrunken log2 fold change: 0.00422

Sequence: RRIRSRPPRLPRPRPRPQCYPRP
- shrunken log2 fold change: -0.569

Sequence: RRIRLRPPRLPRPRPRPMPYPRP
- shrunken log2 fold change: -0.0714

Sequence: RRIRGRPPRLPRPRPRPNSTPRP
- shrunken log2 fold change: 0.344

Sequence: RRIRWRPPRLPRPRPRPPNEPRP
- shrunken log2 fold change: 0.424

Sequence: RRIRLRPPRLPRPRPRPHQHPRP
- shrunken log2 fold change: -0.109

Sequence: RRIRERPPRLPRPRPRPWKMPRP
- shrunken log2 fold change: 0.00355

Sequence: RRIRQRPPRLPRPRPRPTKGPRP
- shrunken log2 fold change: -0.0785

Sequence: RRIRARPPRLPRPRPRPETYPRP
- shrunken log2 fold change: 0.0388

Sequence: RRIRCRPPRLPRPRPRPRFHPRP
- shrunken log2 fold change: -0.393

Sequence: RRIRHRPPRLPRPRPRPFHFPRP
- shrunken log2 fold change: -0.403

Sequence: RRIRWRPPRLPRPRPRPKCNPRP
- shrunken log2 fold change: 0.136

Sequence: RRIRARPPRLPRPRPRPIVYPRP
- shrunken log2 fold change: -0.248

Sequence: RRIRPRPPRLPRPRPRPISMPRP
- shrunken log2 fold change: -0.0272

Sequence: RRIRPRPPRLPRPRPRPVVYPRP
- shrunken log2 fold change: -0.538

Sequence: RRIRTRPPRLPRPRPRPFYMPRP
- shrunken log2 fold change: -0.369

Sequence: RRIRERPPRLPRPRPRPWMTPRP
- shrunken log2 fold change: -0.108

Sequence: RRIRRRPPRLPRPRPRPGNDPRP
- shrunken log2 fold change: -0.0382

Sequence: RRIRRRPPRLPRPRPRPQLSPRP
- shrunken log2 fold change: 0.976

Sequence: RRIRDRPPRLPRPRPRPVSLPRP
- shrunken log2 fold change: -0.442

Sequence: RRIRVRPPRLPRPRPRPIEGPRP
- shrunken log2 fold change: -0.0117

Sequence: RRIRMRPPRLPRPRPRPSICPRP
- shrunken log2 fold change: -0.176

Sequence: RRIRGRPPRLPRPRPRPCMEPRP
- shrunken log2 fold change: 0.831

Sequence: RRIRIRPPRLPRPRPRPQPMPRP
- shrunken log2 fold change: 0.604

Sequence: RRIRYRPPRLPRPRPRPPCHPRP
- shrunken log2 fold change: -0.285

Sequence: RRIRRRPPRLPRPRPRPTGMPRP
- shrunken log2 fold change: 0.906

Sequence: RRIRKRPPRLPRPRPRPDKCPRP
- shrunken log2 fold change: -0.142

Sequence: RRIRWRPPRLPRPRPRPTMDPRP
- shrunken log2 fold change: 0.156

Sequence: RRIRKRPPRLPRPRPRPDVQPRP
- shrunken log2 fold change: -0.00299

Sequence: RRIRWRPPRLPRPRPRPCGGPRP
- shrunken log2 fold change: 0.123

Sequence: RRIRNRPPRLPRPRPRPERKPRP
- shrunken log2 fold change: -0.016

Sequence: RRIRARPPRLPRPRPRPTNTPRP
- shrunken log2 fold change: 0.0887

Sequence: RRIRLRPPRLPRPRPRPFICPRP
- shrunken log2 fold change: -0.426

Sequence: RRIRCRPPRLPRPRPRPYSPPRP
- shrunken log2 fold change: -1.13

Sequence: RRIRNRPPRLPRPRPRPTMPPRP
- shrunken log2 fold change: 0.0915

Sequence: RRIRHRPPRLPRPRPRPVIPPRP
- shrunken log2 fold change: -0.0562

Sequence: RRIRPRPPRLPRPRPRPAHYPRP
- shrunken log2 fold change: 0.02

Sequence: RRIRMRPPRLPRPRPRPDICPRP
- shrunken log2 fold change: -0.01

Sequence: RRIRPRPPRLPRPRPRPRAGPRP
- shrunken log2 fold change: 0.626

Sequence: RRIRPRPPRLPRPRPRPMHGPRP
- shrunken log2 fold change: 0.0373

Sequence: RRIRSRPPRLPRPRPRPKPDPRP
- shrunken log2 fold change: 0.22

Sequence: RRIRERPPRLPRPRPRPHTIPRP
- shrunken log2 fold change: -0.217

Sequence: RRIRYRPPRLPRPRPRPTYYPRP
- shrunken log2 fold change: -1.21

Sequence: RRIRWRPPRLPRPRPRPLAKPRP
- shrunken log2 fold change: 0.499

Sequence: RRIRHRPPRLPRPRPRPEFRPRP
- shrunken log2 fold change: 0.00953

Sequence: RRIRVRPPRLPRPRPRPADLPRP
- shrunken log2 fold change: 0.0387

Sequence: RRIRCRPPRLPRPRPRPGQIPRP
- shrunken log2 fold change: 0.165

Sequence: RRIRHRPPRLPRPRPRPNVMPRP
- shrunken log2 fold change: 0.0213

Sequence: RRIRKRPPRLPRPRPRPFTRPRP
- shrunken log2 fold change: 0.0464

Sequence: RRIRMRPPRLPRPRPRPICSPRP
- shrunken log2 fold change: 0.241

Sequence: RRIRSRPPRLPRPRPRPMGIPRP
- shrunken log2 fold change: 0.0414

Sequence: RRIRARPPRLPRPRPRPACDPRP
- shrunken log2 fold change: 0.851

Sequence: RRIRNRPPRLPRPRPRPSVIPRP
- shrunken log2 fold change: -0.781

Sequence: RRIRHRPPRLPRPRPRPEMCPRP
- shrunken log2 fold change: -0.206

Sequence: RRIRWRPPRLPRPRPRPGQVPRP
- shrunken log2 fold change: -0.0635

Sequence: RRIRPRPPRLPRPRPRPIFRPRP
- shrunken log2 fold change: -0.0135

Sequence: RRIRRRPPRLPRPRPRPTPCPRP
- shrunken log2 fold change: 0.774

Sequence: RRIRWRPPRLPRPRPRPRMKPRP
- shrunken log2 fold change: 0.158

Sequence: RRIRMRPPRLPRPRPRPSTQPRP
- shrunken log2 fold change: 0.148

Sequence: RRIRHRPPRLPRPRPRPYKMPRP
- shrunken log2 fold change: -0.226

Sequence: RRIRQRPPRLPRPRPRPPKTPRP
- shrunken log2 fold change: 0.113

Sequence: RRIRYRPPRLPRPRPRPEVNPRP
- shrunken log2 fold change: -0.0081

Sequence: RRIRARPPRLPRPRPRPLRSPRP
- shrunken log2 fold change: 0.914

Sequence: RRIRVRPPRLPRPRPRPNSRPRP
- shrunken log2 fold change: 0.00966

Sequence: RRIRKRPPRLPRPRPRPMDNPRP
- shrunken log2 fold change: 0.103

Sequence: RRIRCRPPRLPRPRPRPCYQPRP
- shrunken log2 fold change: -0.182

Sequence: RRIRERPPRLPRPRPRPQICPRP
- shrunken log2 fold change: 0.172

Sequence: RRIRYRPPRLPRPRPRPERWPRP
- shrunken log2 fold change: 0.44

Sequence: RRIRMRPPRLPRPRPRPEPRPRP
- shrunken log2 fold change: 1.5

Sequence: RRIRPRPPRLPRPRPRPHGNPRP
- shrunken log2 fold change: -0.654

Sequence: RRIRQRPPRLPRPRPRPAYSPRP
- shrunken log2 fold change: -0.051

Sequence: RRIRNRPPRLPRPRPRPHTNPRP
- shrunken log2 fold change: 0.0886

Sequence: RRIRCRPPRLPRPRPRPTMPPRP
- shrunken log2 fold change: -0.281

Sequence: RRIRKRPPRLPRPRPRPHCSPRP
- shrunken log2 fold change: 0.063
